Literature values as cited in PMC2847435.
pKd: −log10 of the molar value.

How the values were obtained:
[1] = molecular target: Src pY527 tail pY527 tail (UniProt P12931)
[2] = molecular target: PDZ ligand peptide VKESLV
[3] = molecular target: PDZ ligand peptide VKQSLL

Row | pKd [1] | pKd [2] | pKd [3] | Substance
1 | 4.54 | – | – | Src SH2 domain SH2 (from UniProt P12931)
2 | – | 5.10 | 4.00 | syntrophin PDZ domain PDZ (from UniProt Q61234)
